Laboratory results: patent US20210324011A1 (University of Washington, published 2021)

B1: DHF58 (designed binder)
chain: MELLRVVMLVKEAEELLTLAVIKGSEDDLQKALRTAVEAAREAVKVLLQAVKRGDPEVALRAVELVVRVAELLLRIAKESGSELALKMALLVAEEAARLAKIVLELAEKQGDPEVALRAVELVVRVAELLLRIAKESGSEEALERALRVAEEAARLAKRVLELAEKQGDPEVARRAVELVKRVAELLERIARESGSEEAKERAERVREEARELQERVKELREREGLE
notes: vector pET28b; forms a homo-polymer; cryoEM PDB 6E9T (4-repeat structure); also called DHF58 four-repeat protomer
B2: DHF51 (designed binder)
chain: AVDQMIRVIVLVKEAEEALLNAKLLGSEMALTLALRTAEEAARVAKTVLELAEKDGDPVVALLAVELVVRVAELLLRIAKESGSEEALERALRVAEEAARLAKRVLELAEKQGDPEVALRAVELVVRVAELLLRIAKESGSEEALERALRVAEEAARLAKRVLELAEKQGDPEVARRAVELVKRVAELLERIARESGSEEAKERAERVREEARELQERVKELREREG
notes: vector pCDB24 (SUMO fusion); forms a homo-polymer
B3: DHF91 (designed binder)
chain: MGDERRELEKVAVKAIMAAMLGNTDEVREQLQRALEIARESGTLLAVVLALEVVARVAIEAARKGNTDAVREALEVALEIARESGTKVAVVLALEVVARVAIEAARRGNVLAVILALEVALEIARESGTEEAALLAVEVVVRVSDEAKKQGNAVAVAVAEQVAKKILE
notes: vector pET28b; forms a homo-polymer; cryoEM PDB 6E9X
B4: DHF107 (designed binder)
chain: MGPEEILERAKESLERAREASERGDEMEFRIAAQKALELARQLVLQALAEGDPELVLEAAKVALRVAELAAKNGDKEVFKKAAESALEVAKVLVLVASKEGKPELVLEAAKVALRVAVLAAMNGDKEVFKKAAESALEVAKRLVEVASKEGDPELVLEAAKVAEKVRVLAAVQGDEEVYEKARETAREVKEELKRVMEEKGLE
notes: vector pET28b; forms a homo-polymer
B5: DHF20 (designed binder)
chain: MDEMKARLLIERAKEAAERAQEAAERTGDPLVRLLAEMLKRLAQEAAEEVKRDPSSSDVNEALKLIVEAIEAAVRALEAAERTGDPEVRELASELVRLAVEAAEEVQRNPSSSDVNEALKLIVEAIEAAVRALEAAERTGDPRVRELARELVRLAVEAAEEVQRNPSSVEVALALLKIVKAIEEAVESLREAEESGDPMKRLEAALRVREAVERAEEVQRN
notes: as for B2
B6: DHF16 (designed binder)
chain: MGQILMKAKLSLVKAAEASLSGDELEFRIAAETALVLAKLLVLQAKKKGDPELVLEAAKVALRVAELAAKNGDKEVFKKAAESALEVAKRLVEVASKEGDPELVLEAAKVALRVAELAAKNGDKEVFKKAAESALEVAKRLVEVASKEGDPELVEEAAKVAEEVRKLAKKQGDEEVYEKARETAREVKEELKRVREEKGLE
notes: as for B4
B7: DHF52 (designed binder)
chain: SLKELLELERVAVEAIVAAAEGNTMEVIEQLQRAMLIAVLSGTTSAVKLALEVVARVAIEAARIGNTDAVRIALSVALTIAVISGTTEAVKLALEVVARVAIEAARRGNTDAVREALEVALEIARESGTEEAVRLALEVVKRVSDEAKKQGNEDAVKEAEEVRKKIEEESG
notes: as for B2
B8: DHF76 (designed binder)
chain: MGLEKEVLRVKLVKICVLLARLKGDDTEEAREAARQAFEVVRLAAELAGIDSSEVLELAIRLIKECVENAQREGYDISLACMLAALAFKRVAEAAKRAGITSSEVLELAIRLIKECVENAQRDGYDISEACRAAAEAFKRVAEAAKRAGITSSETLKRAIEEIRKRVEEAQREGNEISEACRQAAEEFRKKAEELKRLE
notes: as for B4
B9: DHF9 (designed binder)
chain: MGLILELAKLSLERARLASEAGDRVEFKIAAEKALLLAKVLVLQAKKEGDPELVLEAAKVALRVAELAAKNGDKEVFKKAAESALEVAKRLVEVASKEGDPELVLEAAKVALRVAELAAKNGDKEVFKKAAESALEVAKRLVEVASKEGDPELVEEAAKVAEEVRKLAKKQGDEEVYEKARETAREVKEELKRVREEKGDLE
notes: as for B4
B10: DHF49 (designed binder)
chain: MGHHHHHHSSGSDEEEARELIERAAEAAKRAVEAAERTGDPNVVELAKELVRLAQEAAEEVKRDPSSSDVNEALKLIVEAIEAAVRALEAAERTGDPVVRLLARELVRLAVEAAEEVQRNPSSSDVNEALKLIVEAIEAAVRALEAAERTGDPEVRELARELVRLAVEAAEEVQRNPSSEQVNEALKKIVKAIQEAVESLREAEESGDPEKRDKARLRVLEAVIRAMVVQIN
notes: as for B4
B11: DHF77 (designed binder)
chain: MGDSMKLVMLLLKKAVTLAKLNNDDMVALEIERAAKQIVLALAVNKSDEMAKVMLALAKAVLLAAKNNDDEVAREIARAAAEIVEALKENNSDEMAKVMLALAKAVLLAAKNNDDEVAREIARAAAEIVEALRENNSDEMAKKMLELAKRVLDAAKNNDDETAREIARQAAEEVEADRENLE
notes: as for B4
B12: DHF25 (designed binder)
chain: ARVVLKRVEKLVKEAETLLLVAIMKGSEEDLEKALRTAEEAAREAKKVLVLAVVVGDPEVALRAVELVVRVAELLLLIAIISGSEEALERALRVAEEAARLAKRVLELAENQGDPEVALRAVELVVRVAELLLMIAKVSGSEEALERALRVAEEAARLAKRVLELAEKQGDPEVARRAVELVKRVAELLERIARESGSEEAKERAERVREEALQLQARVMNLREREG
notes: as for B2
B13: DHF17 (designed binder)
chain: MGHHHHHHSSGSSEKEELRERLVEIVVALAKAKGDDTELAREAAREAFELVREAAERAGIDSSMVLILAIQLILEVVANAAKEGYDISLAALAAAEAFKRVAEAAKRAGITSSMVLILAIRLIKEVVENAQREGYDISLAALAAAEAFKRVAEAAKRAGITSSMTLMRAIEEIRKRVEEAQREGNDISEAARQAAEEFIIKAVVLKARGDV
notes: as for B4
B14: DHF82 (designed binder)
chain: MGPEEILESAKESLERAREASEAGLELVFRLAAEVALELAKRLVEQAKKEGDPELVLEAAKVALRVAELAAKNGDKEVFKKAAESALEVAKRLVEVASKEGDPELVLEAAKVALRVAELAAKNGDKEVFKKAAESALEVAKRLVEVASKEGDPTLVIMALIVAEEVIKLASKQGDELVMLKAVETAKEVKEEAMRVMLEKGLE
notes: as for B4
B15: DHF78 (designed binder)
chain: MGELVLLVAKLALAVAVQASALGDEEVFRKAAEKALELAKRLVELAKLIGDPELVLEAAKVALEVAELAAKNGDKEVFKKAAESALEVAKRLVEVASKEGDPELVLEAAKVALRVAELAAKNGDKEVFKKAAESALEVAKRLVEVASKEGDPELVEEAAKVAEEVRKLAKKQGDEEVYEKARETAREVKEELKRVREEKGLE
notes: as for B4
B16: DHF48 (designed binder)
chain: MAVEEAIRVMRLVREAEQVLLQAKMMGSERVLEMALRTAEEAAREAKLVLAVAELEGDPVVALIAVELVVRVAELLLRIAKESGSEEALERALRVAEEAARLAKRVLELAEKQGDPEVALRAVELVVRVAELLLRIAKESGSEEALERALRVAEEAARLAKRVLELAEKQGDPEVARRAVELVKRVAELLERIARESGSEEAKERAERVREEARELQERVKELREREGLE
notes: as for B4
B17: DHF8 (designed binder)
chain: MGLELSLVINLVLLANLLHLQAMMKGSSEDLEKALRTAEEAAREAKKVLEQAEKNGDPEVALRAVELVVIVAITLLLIAISSGSEEALERALRVAEEAARLAKRVLELAEKAGDPEVALRAVELVVRVAELLLRIAKESGSEEALERALRVAEEAARLAKRVLELAEKQGDPEVARRAVELVKRVAELLERIARESGSEEAKERAERVREEARELQERVKELREREGLE
notes: as for B4
B18: DHF62 (designed binder)
chain: MGIVLVIESLEAEVRLEKAKVLSVLARVRGDLKELAEALIEEARAVQELARVACEKGNSEEAERASEKAQRVLEEARKVSEEAREQGDDEVLALALIAIALAVLALAEVACCRGNSEEAERASEKAQRVLEEARKVSEEAREQGDDEVLALALIAIALAVLALAEVACCRGNKEEAERAYEDARRVEEEARKVKESAEEQGDSEVKRLAEEAEQLAREARRHVQECRGLE
notes: as for B4
B19: DHF50 (designed binder)
chain: AIVQLMTVIAMAVIANALLIRAIVNGSAEDLEKALRTAEEAAREAKKVLEQAEKDGDPEVALRAVELVVLVAVNLLLIAKESGSEEALERALRVAEEAARLAKRVLELAEKVGDPEVALRAVELVVRVAELLLRIAKESGSEEALERALRVAEEAARLAKRVLELAEKQGDPEVARRAVELVKRVAELLERIARESGSEEAKERAERVREEARELQERVKELREREG
notes: as for B2
B20: DHF5 (designed binder)
chain: ALDLLARVIVLVMEAVKLLVLAVIMGLEMILRVALRLAEEAARAAKAVLLLAEVEGDPEVALKAVELVVRVAELLLRIAKESGSEEALERALRVAEEAARLAKRVLELAEKQGDPEVALRAVELVVRVAELLLRIAKESGSEEALERALRVAEEAARLAKRVLELAEKQGDPEVARRAVELVKRVAELLERIARESGSEEAKERAERVREEARELQERVKELREREG
notes: as for B2
B21: DHF58-GFP (designed binder)
chain: MELLRVVMLVKEAEELLTLAVIKGSEDDLQKALRTAVEAAREAVKVLLQAVKRGDPEVALRAVELVVRVAELLLRIAKESGSELALKMALLVAEEAARLAKIVLELAEKQGDPEVALRAVELVVRVAELLLRIAKESGSEEALERALRVAEEAARLAKRVLELAEKQGDPEVARRAVELVKRVAELLERIARESGSEEAKERAERVREEARELQERVKELREREGLE
notes: expressed in E. coli; not shown: green fluorescent protein

Target: the molecule itself
Experiment: negative stain EM; 1 = filaments observed (self-assembly)
Excerpt: The designs were expressed in Escherichia coli under the control of a T7 promoter and purified using immobilized metal affinity chromatography (IMAC). […] IMAC eluates were concentrated, and filament formation was monitored by negative stain electron microscopy (EM); insoluble designs were characterized by EM either directly in the initial insoluble fraction, or after solubilization in guanidine hydrochloride, IMAC, and subsequent removal of denaturant.
Negative Stain Electron Microscopy. Soluble fractions were concentrated and insoluble fractions were resuspended in buffer (25 mM Tris, 75 mM NaCl, pH 8) for EM screening. A drop of 6 μL (1 μl sample instantly diluted with 5 μl of buffer) was applied on negatively glow discharged, carbon-coated 200-mesh copper grids (Ted Pella, Inc.), washed with Milli-Q™ Water and stained using 0.75% uranyl formate as described previously (28). The screening was performed on either a 120 kV Tecnai Spirit™ T12 transmission electron microscope (FEI, Hillsboro, Oreg.) or a 100 kV Morgagni M268 transmission electron microscope (FEI, Hillsboro, Oreg.). Images were recorded on a bottom mount Teitz CMOS™ 4 k camera system. The contrast of the images was enhanced in the Fiji software (29) for clarity.

Binding result, binds:
B1
B2
B3
B4
B5
B6
B7
B8
B9
B10
B11
B12
B13
B14
B15
B16
B17
B18
B19
B20

Target: the molecule itself
Experiment: fluorescence microscopy in living E. coli (self-assembly)

Binding result, binds:
B21
